Assay results published in patent US20170044259A1 (CYTOMX THERAPEUTICS, published 2017).

T1: mouse PD-1 expressed on HEK293 cells (mouse, UniProt Q02242 25-288)
T1 construct: whole, on cells; also called HEK293-mPD-1; mPD-1 HEK293 cells
T1 sequence (looked up): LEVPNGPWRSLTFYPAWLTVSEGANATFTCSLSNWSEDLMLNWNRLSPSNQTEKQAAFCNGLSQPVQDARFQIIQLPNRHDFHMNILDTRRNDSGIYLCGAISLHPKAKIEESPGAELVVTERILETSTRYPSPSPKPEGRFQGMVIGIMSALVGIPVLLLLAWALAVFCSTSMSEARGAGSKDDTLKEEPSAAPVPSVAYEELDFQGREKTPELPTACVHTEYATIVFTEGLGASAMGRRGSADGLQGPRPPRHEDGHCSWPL


Tests used:
[1] = target: T2, human PD-1-Fc (R and D systems, Minneapolis, Minn.) (human, UniProt Q15116 25-167); experiment: plate ELISA on adsorbed human PD-1-Fc, single site saturation fit
T2 construct: bought; also called hPD-1-Fc; hPD-1; not shown: Fc part of the bought fusion

[2] = target: T2, human PD-1-Fc (R and D systems, …); experiment: inhibition ELISA on human PD-1-Fc; competitor 2 nM biotinylated PDL2 (hPDL2/Fc)
[3] = target: T2, human PD-1-Fc (R and D systems, …); experiment: inhibition ELISA on human PD-1-Fc; competitor 2 nM biotinylated PD-L1 (hPDL1/Fc)
[4] = target: T1, mouse PD-1 expressed on HEK293 cells; experiment: flow cytometry on mPD-1 HEK293 cells, titration from 150 nM

T2 sequence (Q15116 25-167 limits assumed): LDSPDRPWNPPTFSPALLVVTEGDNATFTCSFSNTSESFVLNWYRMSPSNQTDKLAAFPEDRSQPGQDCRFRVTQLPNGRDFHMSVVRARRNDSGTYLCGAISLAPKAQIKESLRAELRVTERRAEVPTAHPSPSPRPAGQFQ

Kd [1]	IC50 [2]	IC50 [3]	binding result [4]	Binder
0.19 nM	2.8 nM	4.8 nM	–	m136-M14-MHC724 (antibody, V domains shown, mouse hybridoma antibody, mIgG2a/K) VH: KVMLVESGGDLVKPGGSLKLSCAASGFTFSSYGMSWVRQTPEKRLEWVATISGGGRDIYYADTVKGRFTISRDNAKNTLYLQMSSLRSEDTALYFCARLYLGFDYWGQGTTLTVSS VL: DIQMTQSPASQSASLGESVTITCLASQTIGTWLAWYQQKPGKSPQLLIYAATSLADGVPSRFSGSGSGTKFSFKISSLQAEDFVSYYCQQLYSIPWTFGGGTKLEIK
–	–	–	binds	J43v2 mIgG2a (antibody, V domains shown, also called J43 m2a; J43v2 m2a) VH: EVRLLESGGGLVKPEGSLKLSCVASGFTFSDYFMSWVRQAPGKGLEWVAHIYTKSYNYATYYSGSVKGRFTISRDDSRSMVYLQMNNLRTEDTATYYCTRDGSGYPSLDFWGQGTQVTVSS VL: YELTQPPSASVNVGETVKITCSGDQLPKYFADWFHQRSDQTILQVIYDDNKRPSGIPERISGSSSGTTATLTIRDVRAEDEGDYYCFSGYVDSDSKLYVFGSGTQLTVLG
0.19 nM	2 nM	3.3 nM	–	m136-M13-MHC723 (antibody, V domains shown, mouse hybridoma antibody, mIgG1/K) VH: EVKLVESGGGLVKPGGSLKLSCAASGFTFSGYAMSWVRQTPAKRLEWVAYISNSGGNAHYPDSVKGRFTISRDNAKNTLYLQMSSLRSEDTAMYYCTREDYGTSPFVYWGQGTLVTVSA VL: not shown
0.23 nM	–	–	–	m136-M19-MHC725 (antibody, V domains shown, mouse hybridoma antibody, mIgG2b/K) VH: EVQLQQSGPELVKPGDSVKMSCKASGYTFTDYYMDWVKQSHGKSLEWIGYIYPKNGGSSYNQKFKGKATLTVDKSSSTAYMELHSLTSEDSAVYYCARKVVATDYWGQGTTLTVSS VL: DIVMSQSPSSLAVSVGEKVTMSCKSSQSLLYSSNQKNYLAWYQQKPGQSPKLLIFWASIRESGVPDRFTGSGSGTDFTLTISSVKAEDRAVYYCQQCDSYPWTFGGGTKLEIK
